The conditions of this series: Drosophila melanogaster, pH 6, Thermal, CD, phosphate 50 mM, Na2SO4 0.4 M, whole UniProt chain shown.

B1: Growth factor receptor-bound protein 2 wild type, Q08012 (protein)
chain: MEAIAKHDFSATADDELSFRKTQILKILNMEDDSNWYRAELDGKEGLIPSNYIEMKNHDWYYGRITRADAEKLLSNKHEGAFLIRISESSPGDFSLSVKCPDGVQHFKVLRDAQSKFFLWVVKFNSLNELVEYHRTASVSRSQDVKLRDMIPEEMLVQALYDFVPQESGELDFRRGDVITVTDRSDENWWNGEIGNRKGIFPATYVTPYHS
Take B1: the Tm was 63.7 °C. In addition, the unfolding free energy (25 °C) worked out at 1.8 kcal/mol.

The record behind these values is FireProtDB (doi:10.1006/jmbi.2001.4521).
